Residue numbers refer to the chain shown, from its start. Where “and” joins values, the source holds several entries; their conditions need not be identical. Equal entries are not always repeated. Where two headings read alike, the source gives them in different places.
T1: mouse Fc-tagged mouse CD137 (R&D Systems, cat. 937-4B-050) (mouse, UniProt P20334 24-187)
T1 construct: also called mouse CD137-Fc chimeric protein
T1 sequence (looked up): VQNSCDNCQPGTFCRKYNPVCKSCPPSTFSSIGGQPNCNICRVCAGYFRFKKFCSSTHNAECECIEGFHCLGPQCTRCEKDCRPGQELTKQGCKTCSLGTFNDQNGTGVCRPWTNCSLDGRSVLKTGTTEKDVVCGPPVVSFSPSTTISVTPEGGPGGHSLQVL

B1: urelumab (antibody, V domains shown)
VH: QVQLQQWGAGLLKPSETLSLTCAVYGGSFSGYYWSWIRQSPEKGLEWIGEINHGGYVTYNPSLESRVTISVDTSKNQFSLKLSSVTAADTAVYYCARDYGPGNYDWYFDLWGRGTLVTVSS
VL: EIVLTQSPATLSLSPGERATLSCRASQSVSSYLAWYQQKPGQAPRLLIYDASNRATGIPARFSGSGSGTDFTLTISSLEPEDFAVYYCQQRSNWPPALTFGGGTKVEIK
B2: PRO885 (38-02-A04 sc01 scDb-i/33-03-G02 sc01 scDb-o) (bispecific antibody)
chain: DIQMTQSPSSLSASVGDRVTITCQASQSINDYLAWYQQKPGKAPKLLIYKASTLASGVPSRFSGSGSGTDFTLTISSLQPEDFATYYCQQGYIITDIDNVFGTGTKVTVLGGGGGSQVQLQESGPGLVKPSETLSLTCKVSGFSFSNSYWICWIRQPPGKGLEWIGCTFVGSSDSTYYANWAKGRVTISVDSSKNQFSLKLSSVTAADTAVYYCARHPSDAVYGYANNLWGQGTLVTVSSGGGGSGGGGSGGGGSGGGGSIQMTQSPSSLSASVGDRVTITCQASQSINNVLAWYQQKPGKAPKLLIYRASTLASGVPSRFSGSGSGTDFTLTISSLQPEDFATYYCQSSYGNYGDFGTGTKVTVLGGGGGSQVQLQESGPGLVKPSETLSLTCKVSGFSFSSGYDMCWIRQPPGKGLEWIGCVVAGSVDITYYASWAKGRVTISVDSSKNQFSLKLSSVTAADTAVYYCARKDAYSDAFNLWGQGTLVTVSS
notes: scDb, PDL1 x CD137; also called anti-PDL1xCD137 scDb
B3: PRO1124 (38-02-A04 sc06 Full scDb-i/33_03_G02 scDb-o) (bispecific antibody)
chain: B2 chain with V140A, I154V, V190K, F197V, Y213F, I261L, A302P
notes: scDb; also called PR01124
B4: PRO997 (37-20-B03 CDR, scFv) (scFv)
scFv: DIQMTQSPSSLSASVGDRVTITCQASQSIGTYLAWYQQKPGKAPKLLIYRAFILASGVPSRFSGSGSGTDFTLTISSLQPEDFATYYCQSNFYSDSTTIGPNAFGTGTKVTVLGGGGGSGGGGSGGGGSGGGGSQVQLQESGPGLVKPSETLSLTCKVSGFSFNSDYWIYWIRQPPGKGLEWIGSIYGGSSGNTQYASWAQGRVTISVDSSKNQFSLKLSSVTAADTAVYYCARGYVDYGGATDLWGQGTLVTVSS
notes: also called anti-PDL1 scFv PRO997
B5: PRO951 (38-27-C05 sc02 scDb-i/33-03-G02 sc01 scDb-o) (bispecific antibody)
chain: DIQMTQSPSSLSASVGDRVTITCQASQSINDYLAWYQQKPGKAPKLLIYKASTLASGVPSRFSGSGSGTDFTLTISSLQPEDFATYYCQQGYIITDIDNVFGTGTKVTVLGGGGGSEVQLVESGGGLVQPGGSLRLSCAASGFSFNNDYDMCWVRQAPGKGLEWIGCIDTGDGSTYYASWAKGRFTISRDNSKNTVYLQMNSLRAEDTAVYYCAREAASSSGYGMGYFDLWGQGTLVTVSSGGGGSGGGGSGGGGSGGGGSIQMTQSPSSLSASVGDRVTITCQSSQSVYDNNWLAWYQQKPGKAPKLLIYRASNLASGVPSRFSGSGSGTDFTLTISSLQPEDFATYYCQGTYLSSNWYWAFGTGTKVTVLGGGGGSQVQLQESGPGLVKPSETLSLTCKVSGFSFSSGYDMCWIRQPPGKGLEWIGCVVAGSVDITYYASWAKGRVTISVDSSKNQFSLKLSSVTAADTAVYYCARKDAYSDAFNLWGQGTLVTVSS
notes: scDb, PDL1 x CD137

Key:
[1] = molecular target: T2, human CD137 expressed on Jurkat cells (human, UniProt Q07011 24-255); experiment: cell-based or functional assay
[2] = molecular target: T2, human CD137 expressed on Jurkat cells; experiment: cell-based or functional assay; remark: listed apart in the source
[3] = molecular target: T2, human CD137 expressed on Jurkat cells; experiment: cell-based or functional assay; remark: listed apart in the source
[4] = molecular target: T2, human CD137 expressed on Jurkat cells; experiment: cell-based or functional assay; remark: listed apart in the source
[5] = molecular target: T2, human CD137 expressed on Jurkat cells; experiment: cell-based or functional assay; remark: listed apart in the source
[6] = molecular target: T2, human CD137 expressed on Jurkat cells; experiment: cell-based or functional assay; remark: listed apart in the source
[7] = molecular target: T2, human CD137 expressed on Jurkat cells; experiment: cell-based or functional assay; remark: listed apart in the source
[8] = molecular target: T2, human CD137 expressed on Jurkat cells; experiment: cell-based or functional assay; remark: listed apart in the source
[9] = molecular target: T3, Fc tagged human CD137 (R&D Systems, cat. 838-4B-100) (human, UniProt Q07011 24-186); experiment: SPR T200, antigen-Fc captured, molecule as analyte
T3 construct: also called CD137 Fc chimera; human CD137-Fc chimeric protein
How it was run: (§1)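 Apparent KD, ka and kd come from a one-to-one Langmuir model. Species Fc proteins were captured on an immobilized anti-Fc surface, and analyte at 0.12-90 nM (three-fold series) was flowed 3 min with 10-min dissociation; surfaces were stripped with 3 M MgCl₂.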

[10] = molecular target: human PDL1-Fc chimeric protein (human, UniProt Q9NZQ7 19-238, limits assumed); experiment: SPR T200, antigen-Fc captured, molecule as analyte
How it was run: as §1

[11] = molecular target: T1, mouse Fc-tagged mouse CD137 (R&D …); experiment: SPR T200, antigen-Fc captured, molecule as analyte
How it was run: as §1

[12] = molecular target: T4, cynomolgus monkey Fc-tagged CD137 (R&D Systems, cat. 9324-4B-100) (cynomolgus monkey, UniProt A9YYE7 24-186); experiment: SPR T200, antigen-Fc captured, molecule as analyte
T4 construct: also called cynomolgus CD137-Fc chimeric protein
T4 sequence (A9YYE7 entry or part of it): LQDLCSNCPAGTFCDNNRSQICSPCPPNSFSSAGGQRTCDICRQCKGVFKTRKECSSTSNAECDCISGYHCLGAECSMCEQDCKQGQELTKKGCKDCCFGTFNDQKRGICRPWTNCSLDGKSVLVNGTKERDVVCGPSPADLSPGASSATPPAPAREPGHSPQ
How it was run: as §1

[13] = molecular target: T2, human CD137 expressed on Jurkat cells; experiment: cell-based or functional assay; remark: listed apart in the source
[14] = molecular target: T2, human CD137 expressed on Jurkat cells; experiment: cell-based or functional assay; remark: listed apart in the source
[15] = molecular target: T3, Fc tagged human CD137 (R&D Systems, …); experiment: SPR T200, antigen-Fc captured, molecule as analyte; remark: listed apart in the source
[16] = molecular target: human PDL1 on cells (antigen-presenting cells and T cells of SEA stimulated human PBMC) (human, UniProt Q9NZQ7 19-290); experiment: cell-based or functional assay
[17] = molecular target: cynomolgus PDL1-Fc chimeric protein (cynomolgus, UniProt G7PSE7 19-238); experiment: SPR T200, antigen-Fc captured, molecule as analyte
cynomolgus PDL1-Fc chimeric protein, sequence (G7PSE7 entry or part of it mutant): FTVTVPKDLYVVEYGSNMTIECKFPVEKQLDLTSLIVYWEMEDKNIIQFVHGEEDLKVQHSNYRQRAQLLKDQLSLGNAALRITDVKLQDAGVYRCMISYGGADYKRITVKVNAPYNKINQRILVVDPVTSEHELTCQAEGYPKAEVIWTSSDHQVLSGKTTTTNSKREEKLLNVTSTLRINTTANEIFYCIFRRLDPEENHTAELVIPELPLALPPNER
How it was run: as §1

Row | Binder | EC50 NFkB-luciferase, CHO-PDL1 cells [1] | EC50 NFkB-luciferase, CHO-PDL1 cells, 24 h [2] [µg/mL] | EC50 NFkB-luciferase, CHO-PDL1 cells, 24 h, + HBA (so in the source) [2] [µg/mL] | Top of curve fit, NFkB-luciferase, CHO-PDL1 cells, 24 h, + HBA (so in the source) [2] | EC50 NFkB-luciferase, HCC827 without IFNy [3] | EC50 NFkB-luciferase, CHO-PDL1 cells [4] [µg/mL] | EC50 NFkB-luciferase, HCC827 with IFNy stimulation [5] [µg/mL] | EC50 NFkB-luciferase, HCC827 without IFNy stimulation [5] [µg/mL] | EC50 NFkB-luciferase, HCC827 with IFNy [6] | Kd [9] [nM] | koff [9] [s⁻¹] | kon [9] [M⁻¹ s⁻¹] | Kd [10] [nM] | koff [10] [s⁻¹] | kon [10] [M⁻¹ s⁻¹] | Kd [12] [nM] | koff [12] [s⁻¹] | kon [12] [M⁻¹ s⁻¹] | max. activation, NF-kB reporter gene, CHO-PD-L1 [14] [%] | rel. IC50 (urelumab/test), NF-kB reporter gene, CHO-PD-L1 [14] [ratio] | further results
1 | B1 | 0.0865 µg/mL and 0.0795 µg/mL and 0.104 µg/mL | 0.0466 | 0.0782 | 90.5 | 0.212 µg/mL and 0.11 µg/mL and 0.112 µg/mL | 0.0791 | 0.0528 | 0.0475 | 0.114 µg/mL and 0.145 µg/mL and 0.108 µg/mL | – | – | – | – | – | – | – | – | – | – | – | EC50 NFkB-luciferase, CHO-PDL1 cells, 6 h [7]: 0.0565 µg/mL; EC50 NFkB-luciferase, CHO-PDL1 cells, 6 h, + HSA [7]: 0.0777 µg/mL; Top of curve fit, NFkB-luciferase, CHO-PDL1 cells, 6 h, + HSA [7]: 106
2 | B2 | 0.0063 µg/mL and 0.00513 µg/mL and 0.00486 µg/mL | 0.0138 | 0.0149 | 258 | 0.0115 µg/mL and 0.0131 µg/mL and 0.013 µg/mL | 0.0117 | 0.00751 | 0.00952 | 0.00927 µg/mL and 0.00888 µg/mL and 0.00923 µg/mL | 3.2 | 0.00076 | 240000 | 0.065 | 0.00014 | 2.1e+06 | 2.1 | 0.0007 | 340000 | 499 | 6.75 | EC50 of IL-2 secretion, SEA stimulated PBMC, 96 h [8]: 0.0399 µg/mL; Kd [11]: 600 nM; koff [11]: 0.18 s⁻¹; kon [11]: 290000 M⁻¹ s⁻¹; EC50 of IL-2 secretion, PBMC + CHO-PDL1 50,000 cells/well, anti-CD3 1 ug/ml [13]: 0.0129 µg/mL; EC50 of IL-2 secretion, PBMC + CHO-PDL1 50,000 cells/well, anti-CD3 2 ug/ml [13]: 0.052 µg/mL; EC50 of IL-2 secretion, PBMC + CHO-PDL1 100,000 cells/well, anti-CD3 1 ug/ml [13]: 0.0862 µg/mL; EC50 of IL-2 secretion, PBMC + CHO-PDL1 100,000 cells/well, anti-CD3 2 ug/ml [13]: 0.0419 µg/mL; EC50 of IL-2 secretion, PBMC + CHO-PDL1 200,000 cells/well, anti-CD3 1 ug/ml [13]: 0.0806 µg/mL; EC50 of IL-2 secretion, PBMC + CHO-PDL1 200,000 cells/well, anti-CD3 2 ug/ml [13]: 0.0301 µg/mL; max. activation, HCC827 +IFNg [14]: 134%; max. activation, HCC827 -IFNg [14]: 111%; rel. IC50 (urelumab/test), HCC827 +IFNg [14]: 16.3 ratio; rel. IC50 (urelumab/test), HCC827 -IFNg [14]: 8.42 ratio; EC50 NFkB-luciferase, CHO-PDL1 cells, 6 h [7]: 0.00784 µg/mL; EC50 NFkB-luciferase, CHO-PDL1 cells, 6 h, + HSA [7]: 0.00792 µg/mL; Top of curve fit, NFkB-luciferase, CHO-PDL1 cells, 6 h, + HSA [7]: 493
3 | B3 | 0.00368 µg/mL | – | – | – | 0.00562 µg/mL | – | – | – | 0.00483 µg/mL | ≤ 0.015 | < 1e-05 | 680000 | 0.067 | 0.0002 | 3.1e+06 | 0.59 | 0.00033 | 560000 | 229 | 23.5 | Top of curve fit, NFkB-luciferase, CHO-PDL1 cells [1]: 229; fold improvement of affinity against PRO885 [15]: > 200 fold; Kd [11]: 11 nM; koff [11]: 0.0022 s⁻¹; kon [11]: 200000 M⁻¹ s⁻¹; Top of curve fit, NFkB-luciferase, HCC827 without IFNy [3]: 113; max. activation, HCC827 +IFNg [14]: 188%; max. activation, HCC827 -IFNg [14]: 113%; rel. IC50 (urelumab/test), HCC827 +IFNg [14]: 22.4 ratio; rel. IC50 (urelumab/test), HCC827 -IFNg [14]: 19.9 ratio; Top of curve fit, NFkB-luciferase, HCC827 with IFNy [6]: 188
4 | B4 | – | – | – | – | – | – | – | – | – | – | – | – | ≤ 0.0017 | < 1e-05 | 5.9e+06 | – | – | – | – | – | EC50 of IL-2 secretion, SEA stimulated PBMC, 96 h [16]: 0.0409 µg/mL; Kd [17]: < 0.00167 nM; koff [17]: < 1e-05 s⁻¹; kon [17]: 6e+06 M⁻¹ s⁻¹
5 | B5 | – | – | – | – | – | 0.0337 | – | – | – | 4.2 | 0.0063 | 1.5e+06 | 0.07 | 0.00015 | 2.2e+06 | 6.9 | 0.01 | 1.5e+06 | 432 | 2.35 | binding result [11]: no binding (tested: 0.12-90 nM)

Source: US20200332015A1 (NAMAB THERAPEUTICS, published 2020)
